Assay results taken from a protein production outcome set (Wang et al. 2014).

Assay: label from the status in PepcDB records
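Note: failed if final PepcDB status was selected cloned or expressed and not failed if soluble or beyond.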

Row | Sequence | protein production
1 | RPAVFPRMGVLPARVALLGQGQHWGVDFCLNVFRANFAEDREIQSEDVVRDLLRAQDLDADALIAQARQESTKEALRKQVDRARALGIFGAPTFMVDGEMFWGNDRLEDALA | failed
2 | RPDVSRQSQFHTMALVNLSAKMIESCYFLRHFEQQWLLRFHLQAESVGLFSEGLLAFDGDGRICAANQSALNLLGTVRGGVLGKPLECFFACSHDEMFSRATPGG | failed
3 | RQAEEGPPPLPRQISDRSVGHYCSMNLTEHNGPKAQIFLNGKPDQPVWFSTIKQMFGYTKLPEEPKGIRVIYVTDMGNVTDWTNPNADTEWMDAKKAFYVIDSGFIGGMGAEDALPFGNKEQAEKFAKDKGGKVVGFDDMPDTYIFK | not failed
4 | RQKFINDVLHLLYRPLDWNQSIAKVMELLGRFTQADRSYIFENSPDDSYATNTFEWCQEGIAPQIHLLQHFEYSLMPSWKPLIVEKKMICASDISTLPLDLSETLAPQGIKSILAVSIFAQGRLYGYLGLDSCRKKREWSEEEIELLRSISTIIAGAIERRGWERSEKEQ | failed
5 | RRLVTYVLVHGTHSAGAFWTPIARELGLRGHRVVMVDQPRHGAEAFVAESYQRQDLAAMAVEPSPLKGLGLDDYEARVAGIVRRAARNGPVVLVGHSLGGVSVSRVGEAVPHLLHHICYMAAFCPSRVLPTADACTAAPENANAVSPVELTVGDPDRLGVLRLNFRTGVSGELALLKEMICADYPDADFRRILAGMQTDEPVAAYAGRAVGRAGRWGRIPRTYLRFGRDRTIATALQDRVIAEADAATPGNGFRVHDFPEASHVGPLDPTPVADVLDRLA | failed
6 | RSAHLRVRQLPHAPEHPVATLSTVERRAINLTWTKPFDGNSPLIRYILEMSENNAPWTVLLASVDPKATSVTVKGLVPARSYQFRLCAVNDVGKGQFSKDTERVSLPE | not failed
7 | RSRPSPYACHVEAWAADGRQRVRMANPGHATLVLHVYDCLRLAQGPRRYTIEPGRQWEDSWPDAGADLACDLWILGPDGFHRHIRR | failed
8 | RSTIGAGQKVNVEFVSANPTGPMHVGHVRGAVVGDALARLLAYAGWNVTREYYINDGGAQVDVLARSAFERYREAHGLEPEIREGLYPGDYLIPVGEALKAKYGDSLLDKGEQHWLTEVREFATEMMMQMIREDLAALGVEMDVYSSEKALYGTGKIEAALDRLKEMDLIYEGVLEPPKGKTPEDWEPREQTLFRSTAHGDDVDRPVKKSDGSWTYFAPDIAYHYDKVTRGFDQLIDIFGADHGGYVKRMKAAVAALSAGRVPLDIKLIQLVKLWKNGEPFKMSKRAGTYVTLRDVVEQVGTDVTRFVMLTRKNDATLDFDFDKVLEQSKENPVFYVQYANARINSVLRKAREQGMDVSDA | failed
9 | RTKDGLTLYTRRWDVESPRAVICLVHGLGEHSGRYEHVARFFNENGISFAAFDLRGHGRSEGKRGHAEYQQLMDDITLFLQSLDYDCPKILYGHSMGGNLALNYILRYDPDIAGGIISAPFLALPKELPKHLFFILKLLNVVAPSIQLSNGIDPNLISRDREVVEAYVSDPLVHDKISPRFILQSLEAGKWALENADRLRKPILLIHGTADQITSYRASQEFAKRAGELCKFVSYEGFYHEPHNEPEKERVLADMLKWIEEVI | failed
10 | RTSYLEFNQRDKNSPYNNVNLRKAISAAIDRNALVDKILGDGSVVATGLIPEGMSYSPTDDTDFADENKKIVEYSPEKAKEYWAKAKKELGITTLKMDIVADDVDSTKKLAEYIQGTLKDTLEGIDVTVSPVPFSVRIDRGSRGDFETILGGWAADYADPSSFLDLFVTGNNYNRGRFSSKAYDELIEASATRDASDPEKRWEDMVKAEKLLIGEETALAPLYQKA | failed
11 | RVTVMLAAFEGWNDAGEAASDALHYLNKLWDGKKVATVDAEEYYDFQFTRPTVRRTSSGARKVKWPSTRIYKAEVPDSNVDVVLVLGTEPSYRWRAYTTELLVHAEALKVDSVILVGALLADVPHSRPIPVSTTTEDSSLRERLNLEASQYEGPVGIVGVLAEFAMLAGLPTVSLWAAVPHYVAQPPSPKAQLAILHRIEDLLQVPLDSQALAEESEAWERGVDELATEDPEITAYVRQLEEAKDTADLPE | not failed
12 | RYENILLPTDGSEGADLAIEWGITLAEIYDATVHTLYSVDTSRFGGVEGSAEIHDALEETGQEALETVHERARDADVSIAGNIASGPAARAILSYSEEHDIDLIAMGTHGRSGLTRYLTGSVTETVVRNAAVPVCCVPMQ | failed
13 | RYGGDSTMIEMAFNKILIYAFGQFSAYSVWFDNNYLNIVDTIPGYGVFTGVVSKIFDFDRVSGFYDSFTYISNEDYTNVFTLSR | failed
14 | RYREGLSEALKEPEAKDPGFLERLVALYEEGGEDLLTPPGRVDVRVGEVEGLALVQAGFQKGEWLGELTLIGPLRMRYAEALSVAFSLSQVYTGQHAD | failed
15 | SAAETRNVAGAEAPPPQKRYYRQRAHSNPMADHTLRYPVKPEEMDWSELYPEFFAPLTQNQSHDDPKDKKEKRAQAQVEFADIGCGYGGLLVELSPLFPDTLILGLEIRVKVSDYVQDRIRALRAAPAGGFQNIACLRSNAMKHLPNFFYKGQLTKMFFLFPDPHFKRTKHKWRIISPTLLAEYAYVLRVGGLVYTITDVLELHDWMCTHFEEHPLFERVPLEDLSEDPVVGHLGTSTEEGKKVLRNGGKNFPAIFRRIQDPVLQAVTSQTSLPGH | not failed
16 | SAAVKDSCGKGEMATGNGRRLHLGIPEAVFVEDVDSFMKQPGNETADTVLKKLDEQYQKYKFMELNLAQKKGRLKGQIPEIKQTLEILKYMQKKKESTNSMETRFLLADNLYCKASVPPTDKVCLWLGANVMLEYDIDEAQALLEKNLSTATKNLDSLEEDLDFLRDQFTTTEVNMARVYNWDVKRRNKDDSTKNKA | not failed

Row | Sequence | protein production
17 | SAPPKQSWEQAVDTLRDIGALNAAGQITELGRTLATLPTDPRLGASLLHCGGGAAPTIAALSLDARGDIPRAIAAMSHQQRFTREVARLAGFVP | failed
18 | SASKRWSPPRGIHFTVEEGDLGFTLRGNTPVQVHFLDPHCSASLAGAKEGDYIVSIQGVDCKWLTVSEVMKLLKSFGGEEVEMKVVSLLDSTSSMHNK | not failed
19 | SAVDCPQHCDSSECKSSPRCERTVLDDCGCCRVCAAGRGETCYRTVSGMDGMKCGPGLRCQPSNGEDPFGEEFGICKDC | failed
20 | SAVSARLRTTAEDTSIAKSTQDPIGDTEISVANAKGSSDSNIKNSPGGNSVGQESELEHVPEEDDSGDKEADHEDSETATAKKRKAQPLKNPKKSLKRGRVPAPLNLSDSNTNTHGGNIKDGNLASSNSAHFPPVANQNVKSAPAQVTQHSKFQPRVQYLGKASSRQSIQVNNSSNSYGKPHMPSAGIMSAMNPYMPMNRYIMSPYYNPYGIPPPHMLNKPIMTPYVSYPYPMGPRTSIPYAMQGGNARPYEENEYSASNYRNKRVNDSYDSPLSGTASTGKTRRSEEGSRNSSVGSSANAGPTQQRADLRPADMIPAEEYHFERDALLSANTKARSASTSTSTSTSTNRDRSSWHEAEPNKDEEEGTDLAIEDGAVPTPTFTTFQRTSQPQQQSPSLLQGEIRLSSHIFAFEFPLSSSNVDKKMFMSICNKVWNESKELTKKSSSHHRTGK | failed
21 | SDDNKTTGATYDPNQPVTVESFMPVEGKLREKVIVKGSNFGTDKSKVKVYFVDEAAERLSTVIGIDNNTLYCLAPRQLPGGNRIKVIVDGKEVTTDGTFKYEQAQNVSTISGSASKDGNDDGDLASAKFKYMWGIAAVGNNTVLAYQRDDPRVRLISVDDNKVTTVHPGFKGGKPAVTKDKQRVYSIGWEGTHTVYVYMKASGWAPTRIGQLGSTFSGKIGAVALDETEEWLYFVDSNKNFGRFNVKTQEVTLIKQLELSGSLGTNPGPYLIYYFVDSNFYMSDQNLSSVYKITPDGECEWFCGSATQKTVQDGLREEALFAQPNGMTVDEDGNFYIVDGFKGYCLRKLDILDGYVSTVAGQVDVASQIDGTPLEATFNYPYDICYDGEGGYWIAEAWGKAIRKYAVE | not failed
22 | SDILKDPPSEANSIQSANATTKTSETNHTSRPRLKNVDRSTAQQLAVTVGNVTVIITDFKEK | failed
23 | SDISLLLDVANAACHKGHVADARSIYEGVLAVRPGFAPARLGQALSHAVVNEFAEAERIINEEVLAEAPEDTDAKALLGLTYFLAGRDEEARDVLRPVAEGDTPAAYVARG | failed
24 | SDLPDSASRVFCGRILSMVNTDDVNAIILAQKNMLDRFEKTNEMLLNFNNLSSARLQQMSERFLHHTRTLVEMKRDLDSIFRRIRTLKGKLARQHPEAFSHIPEASFLEEEDEDPIPPSTTTTIATSEQSTGSCDTSPDTVSPSLSPGFEDLSHVQAGSPAINGRSQTDDEEMTGE | failed
25 | SDQTRYSRLANITKIINTKLELREVLQRVTMAISEEIVRCDAVGIYLPEEDGTFRGFAGKPETINGVTLDTQVIDPGIDLLAKEVIETKKTIYIPDTSKDYRPDPRPVDAFKIKSLLALPISFGQELFGLVFLFDYGVPMNLTDSEIQSVEAYVNMAAVAIQNAKNLTQKENLIAEKQLLLNVTRDLSVCSS | failed
26 | SDSRPAVLDLIGNTPLVRVTRFDTGPCTLYLKLESQNPGGSIKDRIGVAMIEAAERDGRLRPGGTIVEATAGNTGLGLALVGRAKGYRVVLVVPDKMSTEKVLHLRAMGAEVHITRSDVGKGHPEYYQDVAARLAQDIPGAFFADQFNNPANPLAHECGTGPELWAQTGHDLDAIVVGVGSSGTLTGLTRFFQKVQPELEMVLADPEGSIMAEYSRSGTLGTPGSWAVEGIGEDFVPAIADLSSVRHAYSISDEESFAMARELLRVEGIPGGSSTGTLLAAALRFCREQKEPKRVVSFVCDTGTRYLSKIYNDQWMTDQGLLQRKHYGDLRDIIARRFEEGRVISVGPDDTLLTAFQRMRLADVSQLPVLDDGKLVGVIDESDILLGVHADAPRFRDAVSSAMNAAPETLAPGASLAQLQAVLDRGLVAIVADASGFHGLITRFDLL | failed
27 | SEDPVFTFGLIADVQYADIEDGENYLRTRRRYYRGSADLLRDAVLQWRRERVQCVVQLGDIIDGHNRRRDASDRALDTVMAELDACSVDVHHVWGNHEFYNFSRPSLLSSRLNSAQRTGTDTGSDLIGDDIYAYEFSPAPNFRFVLLDAYDLSVIGREEESEKHTHSWRILTQHNHNLQDLNLPPVSVGLEQRFVKFNGGFSEQQLQWLDAVLTLSDHKQERVLIFSHLPVHPCAADPICLAWNHEAVLSVLRSHQSVLCFIAGHDHDGGRCTDSSGAQHITLEGVIETPPHSHAFATAYLYEDRMVMKGRGRVEDLTITYS | not failed
28 | SEEDDEVVAMIKELLDTRIRPTVQEDGGDVIYRGFEDGIVRLKLQGSCTSCPSSIITLKSGIQNMLQFYIPEVEGVEQV | not failed
29 | SEEPPVREEEEEEGEEDEERDEVGPEGALGKSPFQLTAEDVYDISYLLGRELMALGSDPRVTQLQFKVVRVLEMLEALVNEGSLALEELKMERDHLRKEVEGLRRQSPPASGEVNLGPNKMVVDLTDPNRPRFTLQELRDVLQERNKLKSQLLVVQEELQCYKSGLIPPREGPGGRREKDAVVTSAKNAGRNKEEKTIIKKLFFFRSGKQT | failed
30 | SEPGEELEEEGSPGGREDGFTAEHLAAEAMAADMDPWLVFDARTTPATELDAWLAKYPPSQVTRYGDPGSPNSEPVGWIAVYGQGYSPNSGDVQGLQAAWEALQTSGRPITPGTLRQLAITHHVLSGKWLMHLAPGFKLDHAWAGIARAVVEGRLQVAKVSPRAKEGGRQVICVYTDDFTDRLGVLEADSAIRAAGIKCLLTYKPDVYTYLGIYRANRWHLCPTLYESRFQLGGSARGSRVLDRANNVELT | not failed
31 | SESICNSLNSKLEPTLENLENLDVSAFQAPEDLLDGCRIYLCGFSGRKLDKLRRLINSGGGVRFNQLNEDVTHVIVGDYDDELKQFWNKSAHRPHVVGAKWLLECFSKGYMLSEEPYIH | not failed
